Columns and labels:
Settings in all cases: one partner purified
[1] = target: T1, HIV-1 BaL Env on free pseudovirus particles (HIV-1 BaL (Env clone not named), UniProt Q2MKA8, strain); assay: fluorescence correlation spectroscopy (FCS)
T1 construct: copies: 3 + 3

[2] = target: T2, HIV-1 BaL Env on pseudovirus particles treated with the CD4 mimetic peptide M48U1 (HIV-1 BaL (Env clone not named), UniProt Q2MKA8, strain); assay: fluorescence correlation spectroscopy (FCS)
T2 construct: source: HIV-1 BaL pseudoviruses [72] treated for 90 min at 37 °C with 200 ug/ml of M48U1; copies: 3 + 3 +

[3] = target: T3, HIV-1 JRFL Env on pseudovirus particles treated with the CD4 mimetic peptide M48U1 (HIV-1 JRFL, UniProt Q75760, strain); assay: fluorescence correlation spectroscopy (FCS)
T3 construct: copies: 3 + 3 +

[4] = target: T4, HIV-1 JRFL Env on free pseudovirus particles (HIV-1 JRFL, UniProt Q75760, strain); assay: fluorescence correlation spectroscopy (FCS)
T4 construct: copies: 3 + 3

[5] = target: T5, HIV-1 ADA Env on CEM-NKR cells infected with the Nef- and Vpu-defective virus (NL4.3 GFP ADA/Nef-Vpu-), with … (HIV-1 ADA (Env clone not named); Homo …, UniProt Q6TAN8;P01730, strain); assay: flow cytometry on cells
T5 construct: also called ADA/N-U- infected cells; pNL43/ADA/N-U- infected CEM-NKR target cells; copies: 3 + 3 +

Measured: binding result

B1: mAb X5 (antibody, V domains shown)
VH: VQLLEQSGAEVKKPGSSVQVSCKASGGTFSMYGFNWVRQAPGHGLEWMGGIIPIFGTSNYAQKFRGRVTFTADQATSTAYMELTNLRSDDTAVYYCARDFGPDWEDGDSYDGSGRGFFDFWGQGTLVTVSS
VL: ELVLTQSPGTLSLSAGERATLSCRASQSVSSGSLAWYQQKPGQAPRLLIYGASTRATGIPDRFSGSGSGTDFTLTIGRLEPEDLAVYYCQQYGTSPYTFGQGTKLEIK
notes: source: generated in house [15]
binds: all assays above
